Assay results from publication PMC13208732 (2026).

Tests used:
[1] = biological target: T1, recombinant human placental growth factor 2 (PlGF-2) (human, UniProt P49763-3 19-170); test: ELISA; competition with biotinylated VEGFR1, no heparin
T1 chain: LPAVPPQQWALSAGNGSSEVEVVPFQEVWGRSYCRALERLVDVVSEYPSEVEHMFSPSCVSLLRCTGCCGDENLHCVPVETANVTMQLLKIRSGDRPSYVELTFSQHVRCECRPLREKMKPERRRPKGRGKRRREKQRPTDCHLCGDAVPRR

[2] = biological target: T1, recombinant human placental growth …; test: ELISA; competition with biotinylated VEGFR1, 1 ug/mL heparin

IC50 [1]: 142 nM
IC50 [2]: 75.1 nM
B1: VEGFR1 domains 1 to 6 fused to a C-terminal Fc, biotinylated (Fc fusion)
chain: SKLKDPELSLKGTQHIMQAGQTLHLQCRGEAAHKWSLPEMVSKESERLSITKSACGRNGKQFCSTLTLNTAQANHTGFYSCKYLAVPTSKKKETESAIYIFISDTGRPFVEMYSEIPEIIHMTEGRELVIPCRVTSPNITVTLKKFPLDTLIPDGKRIIWDSRKGFIISNATYKEIGLLTCEATVNGHLYKTNYLTHRQTNTIIDVQISTPRPVKLLRGHTLVLNCTATTPLNTRVQMTWSYPDEKNKRASVRRRIDQSNSHANIFYSVLTIDKMQNKDKGLYTCRVRSGPSFKSVNTSVHIYDKAFITVKHRKQQVLETVAGKRSYRLSMKVKAFPSPEVVWLKDGLPATEKSARYLTRGYSLIIKDVTEEDAGNYTILLSIKQSNVFKNLTATLIVNVKPQIYEKAVSSFPDPALYPLGSRQILTCTAYGIPQPTIKWFWHPCNHNHSEARCDFCSNNEESFILDADSNMGNRIESITQRMAIIEGKNKMASTLVVADSRISGIYICIASNKVGTVGRNISFYITDVPNGFHVNLEKMPTEGEDLKLSCTVNKFLYRDVTWILLRTVNNRTMHYSISKQKMAITKEHSITLNLTIMNVSLQDSGTYACRARNVYTGEEILQKKEIT
modifications: biotin (EZ-Link Sulfo-NHS-Biotinylation Kit)
